Patent US20160031946A1

Molecular target: OVA257-264 (SIINFEKL) presented by H-2Kb on dendritic cells (chicken; mouse)
Experiment: cell-based or functional assay

For “OT-1 T cell receptor (TCR of OT-1 TCR transgenic mice, specific for the OVA257-264 epitope)”, the proliferating CD8+ T cells (CFSE dilution), BMDCs loaded with ZEBRA-OVA257-264 after maturation was 70%, the proliferating CD8+ T cells (CFSE dilution), BMDCs loaded with ZEBRA-OVA257-264 before maturation was 69% and the proliferating CD8+ T cells (CFSE dilution, 5 days), DCs loaded with ZEBRA-OVA257-264 was 81%. For the same substance, the proliferating CD8+ T cells (CFSE dilution, 5 days), DCs pulsed with 10 uM Ova peptide (positive control) was 93%.
